This note sets out measurements from the DeepSol protein solubility set.

A short description of the data set: soluble on expression in E. coli; label from the status in PepcDB or PDB records.
As to “MGSDKIHHHHHHMAIAIDFGTSNTVIARWNPVTQQPETITLPGLSIQQSLNPPLIPSLVYVEDANQAKILIGQQVRDRGLDLKGDTRFFRSFKRGIGADIQGFLPELDGQIVTFEQVGQWFLTEVIQQLAPLEGGLDSLVLTVPVDSFEAYRYWLGQVCQALPVEQVRMLDEPTAAALGYGLADQEILLVVDFGGGTLDLSLVQLNKSAQTNTKPVGFLLKWGNKSLAEESKQKTKTARVLAKAGQNLGGTDIDNWLVDYFTKTQGLAVSPLTTRLAERIKIQLSTQNQASEVYFDDENFESYELELNRDTLESILKEHSFFEQLDDAMANLLQQARRQGIELADINAVLLVGGTVQLPAVQTWVKQYFQPDKIRCEKPFEAIAQGALQLSQGVEIKDFLYHSYGVRYWDRRNQRHSWHSIIKAGQGYPMTQPVELVLGASLENQPSIELILGELGTETGGTEVYFDGDRLITRRLDTGVTSVKPLNDKEGARTIAQLTPPGFPGSDRIKILFQVDEQRFLRITVEDLLTNDTLLENQLVAQLS”, the “soluble on expression in E. coli” value is “not soluble”.
With “MELDVFAGQEKSELSMIEVARAILETRGRDKEMYFNDLVNEIQNYLEKSDADIRSSLPFFYSDLNTDGSFIPLGDNKWGLRSWYAIDEIDEEVITLEDIDENAPKRKNKKVNAFMDGDEDAIDYNDDDPEDENFTPSSAILEYDNDNEDDENAEVESYDSELNEIIPDDDLDDVELSEEDDDDDDDYEDETND”, the “soluble on expression in E. coli” value is on record as “not soluble”.
Regarding “MGSDKIHHHHHHMEKKPLYHFMPGTMTWSFGTPGCNFKCANRQNWAISQMGQDKSIPLATPEAIVRNAMNTGCSSISCTYTEPTIFAEYALDVMQLARQTGLRNIWISNGYLSPLCLKTVTPWLDAINVGLQSMDDAFYRRVCGARLDPVLDSLRLIQESGMHLEITTLVIPGHSSDPAMLERLAGFIAHDLGTGVPWHIIPFYPEISWKMQDTPPTPAESIEQAFEIGRKAGLSFIYAGNAHSDTFCDQCSARLVGRKASPFGDYRIERFDTGGRCPVCHAPSPMRD”, the “soluble on expression in E. coli” value is given as “not soluble”.
Regarding “MGSDKIHHHHHHMLMKSSTEQIRRQNSALVLAALRVEQAMSHTQIAAVTGLASATVTAITSELEQAGVIERHEQQIAGARGRPRVALSRRRDFAYVMSVRISSDRLNYTLSDFRGKLMDRFEEPRPLDVSAAGFIEGLGRNLARLASRSKLEPEKVAVLSVSSKGIVDAGGARLLWTPVFGQQPLDLKAALGDFEKAMALLSNETLLVAHGLSRRMDAQDGTFRGLIALSLGHSIGLGIARPMPDGTVAVSAPNFGHMLNTADSKLCRCGARGCIEASAGFYGILRMAFEVRPDTIPAKFVPITEMDKIALSARQGNRMAQYAFRQAGLALGQGLSRVFSLHETLPVTITGPGTRYYDLLAQGLEEGLAQSLQVRLDGAPPISLVGDEADLVQEGHVDHALRAIDERLFGGG”, the “soluble on expression in E. coli” value was “not soluble”.
With “GPGSMGSGCSTESSTDVRCSFVGLMDEKKESWRGRLLGDIGKDPTGVTRDFPRTQVYVAAPNRNNYYREKQDHVSVLVLKDKEDESKYFSDRNERVRESLELLVELCGEDSSVIKSEWEKQQKDIPDSSSLLMTVLLESGMMRATEANTENGGAGGETDAVTNIQNGGGGYAPKYTVHSKALRLMQYMVQSVAFFSTQHVTDALRFSWCKHMQDVSWAVYVYTEGGACGKERNSSDEILVLRHMHTLRHYVGQSERSTHPRFEVDWACTFHIDLKRLLDANNTAAKEATFAPEGEVQRIDGELLAARIESPNRKLCRITSTWKKRRSELEGRLMECFGVELTKVDVLDENGPLSALNSGG”, the “soluble on expression in E. coli” value is recorded as “not soluble”.
For the sequence “MTGSNSHITILTLNINGLNSAIKRHRLASWIKSQDPSVCCIQETHLTCRDTHRLKIKGWRKIYQANGKQKKAGVAILVSDKTDFKPTKIKRDKEGHYIMVKGSIQQEELTILNIYAPNTGAPRFIKQVLSDLQRDLDSHTLIMGDFNTPLSTLDRSTRQKVNKDTQELNSALHQADLIDIYRTLHPKSTEYTYVRVRDGHVSQSKIDHIVGSKALLSKCKRTEIITNYLSDHSAIKLELR”, the “soluble on expression in E. coli” value was “soluble”.
Regarding “PNEKFCFEGFLPQKKGRMTKLKSLVDEHRTMVFYESPHRLLKTLTQFAEYFGPERQVSVSREISKIHEETVRGTLSELIEHFTATDPRGEIVIVLAGIDD”, the “soluble on expression in E. coli” value was “not soluble”.
As for “MPMSTDVQGRALAVLNRVAQADWPDRFNLRKPFEKLLYSGSRTGFRLASERSAKQAKGPRKADPDGLFDLSFSDDQQMLVDMLEGFALEVLRPLAHDADAEASLPAELLNQALELGLTHYGVGEVHGGMAGERTTVTTALIAEALAKGDLTLAAALLVPLSAANCIRRWGSPSQQAQWLPAFVSEEGAPLTAIAVNEPSLLFDPQKLATRARRKGSHYLLSGEKCLVLRGLEASRLIVAAKTDEGPALFLVEASAKGVERRAEPAMGLKAGGTARLRLKSVKVPADNRLAAEHFDYRAFLDHASLAWCALALGTGQAALDYVIAYCNEREAFGEPISHRQGVAFMVADIAIELDAMRLMVWRACALAERGQPFQREAYLARLLCAEKAMKIGTDAVQLLGGHGFT”, the “soluble on expression in E. coli” value is reported as “not soluble”.
Consider “MGSDKIHHHHHHMLNFYPGPSKLHANIDLHLQQAITSGILSMNHRSMDFMQLYQQVQENFEQFYDLPKDYKVYFTSAATECWTILAQSFPNRSFLHLYNGSFGKKWMEVSKQLEVEHTSVVFDIHGELPVTEINPDTAAEIVCTTLVETSNGTFLSKDIQAAVRETFSDALIAVDATSALAGLSVTWEHADIWFASVQKCFGLPSGLGILILSPTAQHTVEFRSKDIHYNSLKRIVENGASFQTTHTPNILGIYLLAQRLKEIDVTEFFNRNERMNYLYNHFSSHPSLQPLIIEKSVQSATVLTLKGDEEYIKQVKKSLKAQDIIIGSGYGVWKENTIRLANFPAHTDEDFKKLLLVI”, for which the “soluble on expression in E. coli” value is given as “not soluble”.
Regarding “MGSDKIHHHHHHMGNTVAMILAGGQGTRLGVLTERIAKPAVPFGGKYRLIDFTLSNCVNSGIYRVGVLTQYRPHVLSKHIGIGRPWDLDRKDGGVEILPPYVGRHESDWYKGTANAVYQNLEFLEENDAELVLILSGDHVYAMNYNDLIDYHLLKEADGTIACMEVPIEEASRFGIMITDVDGRIVDFEEKPAKPRSNLASLGIYVFNYEFLKKVLIEDENDPNSSHDFGKDVIPRILRENLGSLYAFRFDGYWRDVGTLRSYWEANLELVLPVPPFNLYDPNWRFFTHTEEMPPAYVAPGSKVSTSLVSEGAEVYGNVFNSVIFQGVKIGRGTVVKNSVIMTRTEIGENCYLENVIIAENVKIGSNVRMGVGEDAESKLDPKVYSGLLTVVGMNSVIPDDMVIGKNCVIGIGVRPEDFKSKTLESGDYVIVREE”, the “soluble on expression in E. coli” value is recorded as “not soluble”.
To “MSVFTPLARPELETFLAPYGLGRLLDYQGIAAGSENTNYFISLEQGEFVLTLVERGPVQEMPFFIELLDVLHDANLPVPYALRTTDGQALRELAGKPALLQPRLPGKHISEPNTQHCVQIGELLANLHLATREQVLERKTDRGLDWMLSEGRNFLSHLGETQRALLEKSLQEIEDLKPQIMALPRANLHADLFRDNVLFEGTHLTGLIDFYNACSGPMLYDLAIALNDWCSRENGQLDAVRARALLGAYAGLRPFTAAESKLWATMLRIACVRFWLSRLIAAETFAGQDVLIHDPVEFEQRLAERQTPHIALPFAL” belongs “soluble”.
On to “MGSVRKASAWLGLVDDNNDDERYYDDDYSEGPESGDAWVTDPRVKVASDVAEEKGRRIATVTPDSFRDARAIGELFRDGVPVIVNLTAMEGTDAKRVVDFAAGLIFGLRGSIERVSTRVFLLSPADTQVISGESAAHRSDGFFNQSLEHHHHHH”, for which the “soluble on expression in E. coli” value was “not soluble”.
To “MIHIDKNVRTSGAYVMYKNSFVFQVGPTSKGDTLGVVRLGGHKEADETAVETAKREVEEEASIDITILNSPTTYYKEYWNAQSKKLKVENKVNPILIIDSPDESLSIMYVAYSKMQPKPSSETKGLLLLSLNDIELICTGKITLNDYINQGGVSILKEKMDKELILQPFPQLMFLSELLKEDPVLLQQFLNLEHHHHHH” belongs “soluble”; to “MALLTSKLRYLLLFYAVFQAAQFGLRWKSYDISPKQFKTIAGKAAAAPTISQSISTLTSGMRTYYEPIMPSHFEWHAIQLGGLTLRMYPMLTAFTEFAAAFSAPFPTSGRPGLHWANTTCTVLKGKVSRFNDGTQDETSENFASGAAFRHGQFESHVYSFEKDTYVACYGRGFLPLSSTVHVTSGISLGEPLSVIQFYMKQAYNYWNNLSHTLYRVFQHYKARATGEL”, “not soluble”.
